In PMC7020990, “Structural and biochemical analysis of the metallo‐β‐lactamase L1 from emerging pathogen Stenotrophomonas maltophilia revealed the subtle but distinct di‐metal scaffold for catalytic activity” (Protein Science : A Publication of the Protein Society, 2019):

Biological target: the molecule itself
Test: crystal structure; L1‐Native in space group P2_(1) with the tetramer in the asymmetric unit; all other L1 structures in P6_(4)22 with one chain in the asymmetric unit and the same tetramer formed by crystallographic twofold symmetries

B1: Metallo‐β‐lactamase L1 from Stenotrophomonas maltophilia K279a (enzyme)
chain: SNASAAEAPLPQLRAYTVDASWLQPMAPLQVADHTWQIGTEDLTALLVQTAEGAVLLDGGMPQMAGHLLDNMKLRGVAPQDLRLILLSHAHADHAGPVAELKRRTGAHVAANAETAVLLARGGSNDLHFGDGITYPPASADRIIMDGEVVTVGGIAFTAHFMPGHTPGSTAWTWTDTRDGKPVRIAYADSLSAPGYQLKGNPRYPRLIEDYKRSFATVRALPCDLLLTPHPGASNWNYAVGSKASAEALTCNAYADAAEKKFDAQLARETAGTR
notes: N-terminal Ser‐Asn‐Ala cloning artifact left after TEV cleavage (numbered residues 17–19); Metallo‐β‐lactamase L1 (subclass B3), S. maltophilia K279a, residues 20-290; 88% identical to the L1 of the other strain in earlier structures; Two Zn ions per chain in the native form; Cloned in pMCSG53; also called L1 MBL; L1‐Native; not shown: His‐tag, N-terminal, cleaved
**Q.** Which “stoichiometry N” value does the source give for B1 here?
**A.** 4
